Test results as given in patent US20180111972A1 (Stanford University, published 2018).
Like-named read-outs stand apart in the source and are kept apart here.

Assays:
[1] = biological target: T1, PDGFRβ-His (residues 1-314 of PDGFR-β with C-terminal hexahistidine tag) (human, UniProt P09619 33-314); assay: yeast surface display titration, flow cytometry
T1 construct: range 1-314; Monovalent form, expressed in FreeStyle 293-F cells; also called PDGRβ-His; PDGFR-His

[2] = biological target: T2, VEGFR2-His (residues 1-764 of VEGFR2, Ig-like domains 1-7, with hexahistidine tag) (human, UniProt P35968 20-764); assay: yeast surface display titration, flow cytometry
T2 construct: range 1-764; Monomeric form, expressed in FreeStyle 293-F cells; also called VEGFR-His

[3] = biological target: T1, PDGFRβ-His (residues 1-314 of PDGFR-β …); assay: yeast surface display, flow cytometry titration of PDGFRβ-His (panel 'PDGFRβ binding')
Description: (§1) Cells were incubated in large enough volumes to avoid ligand depletion and appropriate time to reach equilibrium. During the last hour of incubation, yeast were incubated with 1:250 dilution of chicken anti-c-Myc (Invitrogen) in PBSA. […] Yeast were washed, pelleted, and resuspended in PBSA immediately before analysis by flow cytometry using BD FACSCalibur or BD Accuri C6. Flow cytometry data were analyzed using FlowJo (v7.6.1 and v10, Treestar) or BD Accuri C6 software. Statistical analysis was performed using GraphPad Prism 6.

[4] = biological target: T1, PDGFRβ-His (residues 1-314 of PDGFR-β …); assay: yeast surface display, flow cytometry equilibrium titration of PDGFRβ-His (panel 'PDGFR-His'), normalized fluorescence
Description: as §1

[5] = biological target: T3, soluble PDGFRβ (Fc or His format not stated for the experiment) (human, UniProt P09619 33-532); assay: yeast surface display, flow cytometry titration of soluble receptor; panel 'PDGFR binding', Fc or His form not given
T3 construct: extracellular domain

[6] = biological target: T4, soluble VEGFR2 (Fc or His format not stated for the experiment) (human, UniProt P35968 20-764); assay: binding titration (FIG. 12); taken as yeast display, receptor format not stated; to VEGFR; receptor format not stated
T4 construct: extracellular domain

[7] = biological target: T1, PDGFRβ-His (residues 1-314 of PDGFR-β …); assay: yeast surface display titration, flow cytometry; remark: listed apart in the source
Description: as §1

[8] = biological target: T2, VEGFR2-His (residues 1-764 of VEGFR2, …); assay: yeast surface display titration, flow cytometry; remark: listed apart in the source
Description: as §1

[9] = biological target: T2, VEGFR2-His (residues 1-764 of VEGFR2, …); assay: yeast surface display, flow cytometry equilibrium titration of VEGFR2-His, normalized fluorescence
Description: as §1

[10] = biological target: T1, PDGFRβ-His (residues 1-314 of PDGFR-β …); assay: yeast surface display titration, flow cytometry; remark: listed apart in the source
[11] = biological target: T2, VEGFR2-His (residues 1-764 of VEGFR2, …); assay: yeast surface display titration, flow cytometry; remark: listed apart in the source
[12] = biological target: T3, soluble PDGFRβ (Fc or His format not …); assay: binding titration (FIG. 12); taken as yeast display, receptor format not stated; to PDGFR; receptor format not stated

T1 sequence (P09619 other isoform, or with tags, fused parts or gaps limits assumed, form in doubt): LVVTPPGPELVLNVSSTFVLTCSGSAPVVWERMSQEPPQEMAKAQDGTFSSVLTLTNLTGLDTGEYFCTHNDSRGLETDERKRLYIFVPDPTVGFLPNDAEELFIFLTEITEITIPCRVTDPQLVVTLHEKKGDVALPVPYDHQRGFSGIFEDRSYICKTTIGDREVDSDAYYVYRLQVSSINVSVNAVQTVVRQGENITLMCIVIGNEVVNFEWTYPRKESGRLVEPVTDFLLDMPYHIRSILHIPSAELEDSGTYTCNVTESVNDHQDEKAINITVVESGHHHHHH
T2 sequence (P35968 other isoform, or with tags, fused parts or gaps limits assumed, form in doubt): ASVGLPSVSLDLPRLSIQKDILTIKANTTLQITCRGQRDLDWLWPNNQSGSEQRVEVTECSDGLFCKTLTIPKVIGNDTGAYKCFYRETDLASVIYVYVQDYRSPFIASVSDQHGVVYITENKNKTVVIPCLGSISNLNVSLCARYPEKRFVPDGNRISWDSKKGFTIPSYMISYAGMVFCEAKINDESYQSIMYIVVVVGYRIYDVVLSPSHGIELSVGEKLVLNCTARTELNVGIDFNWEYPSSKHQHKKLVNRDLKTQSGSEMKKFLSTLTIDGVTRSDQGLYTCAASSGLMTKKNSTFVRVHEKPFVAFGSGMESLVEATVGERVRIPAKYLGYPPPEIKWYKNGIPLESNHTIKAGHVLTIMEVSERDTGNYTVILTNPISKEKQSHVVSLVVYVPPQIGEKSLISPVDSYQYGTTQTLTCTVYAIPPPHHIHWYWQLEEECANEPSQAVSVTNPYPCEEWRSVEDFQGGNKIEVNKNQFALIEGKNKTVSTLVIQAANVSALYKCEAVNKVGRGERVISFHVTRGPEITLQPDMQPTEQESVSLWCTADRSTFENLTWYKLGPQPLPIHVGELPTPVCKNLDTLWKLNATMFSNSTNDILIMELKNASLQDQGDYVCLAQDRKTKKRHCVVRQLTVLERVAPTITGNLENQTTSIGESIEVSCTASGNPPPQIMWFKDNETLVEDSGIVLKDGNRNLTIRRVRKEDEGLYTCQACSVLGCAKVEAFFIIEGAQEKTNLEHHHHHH
T3 sequence (P09619 33-532): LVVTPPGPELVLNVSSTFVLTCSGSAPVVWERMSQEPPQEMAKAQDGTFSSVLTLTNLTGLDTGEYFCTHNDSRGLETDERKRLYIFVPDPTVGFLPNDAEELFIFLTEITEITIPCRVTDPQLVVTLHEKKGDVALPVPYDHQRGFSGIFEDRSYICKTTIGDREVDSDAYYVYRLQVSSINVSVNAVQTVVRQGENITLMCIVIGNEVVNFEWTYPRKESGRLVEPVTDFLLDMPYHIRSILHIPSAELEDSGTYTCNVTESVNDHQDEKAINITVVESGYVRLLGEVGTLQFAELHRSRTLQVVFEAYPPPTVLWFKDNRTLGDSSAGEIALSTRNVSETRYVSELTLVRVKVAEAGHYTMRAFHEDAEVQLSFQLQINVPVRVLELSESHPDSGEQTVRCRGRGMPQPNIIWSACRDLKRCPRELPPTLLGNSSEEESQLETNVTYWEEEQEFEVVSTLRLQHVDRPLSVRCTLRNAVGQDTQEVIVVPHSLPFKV
T4 sequence (P35968 20-764): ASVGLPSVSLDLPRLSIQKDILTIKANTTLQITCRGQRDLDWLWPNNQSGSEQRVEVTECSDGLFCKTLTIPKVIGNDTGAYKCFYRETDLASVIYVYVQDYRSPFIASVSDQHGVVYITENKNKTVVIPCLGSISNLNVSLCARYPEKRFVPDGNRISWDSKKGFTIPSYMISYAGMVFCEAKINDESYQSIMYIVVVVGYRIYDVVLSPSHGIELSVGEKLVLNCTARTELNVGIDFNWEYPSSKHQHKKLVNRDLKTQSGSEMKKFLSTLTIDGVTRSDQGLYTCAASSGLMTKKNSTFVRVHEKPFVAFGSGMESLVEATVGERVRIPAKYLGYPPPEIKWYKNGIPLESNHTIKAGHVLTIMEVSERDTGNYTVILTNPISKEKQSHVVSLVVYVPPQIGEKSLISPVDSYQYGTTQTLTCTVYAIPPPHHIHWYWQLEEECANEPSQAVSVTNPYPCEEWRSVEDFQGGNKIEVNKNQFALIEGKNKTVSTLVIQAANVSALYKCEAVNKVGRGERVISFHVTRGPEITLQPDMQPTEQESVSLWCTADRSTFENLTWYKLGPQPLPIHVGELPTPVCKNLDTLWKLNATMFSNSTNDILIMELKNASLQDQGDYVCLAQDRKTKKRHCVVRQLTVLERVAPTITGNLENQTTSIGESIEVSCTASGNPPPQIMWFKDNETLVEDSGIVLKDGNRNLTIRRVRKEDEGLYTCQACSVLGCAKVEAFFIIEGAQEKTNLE

B1: PVAM (4-22 RF), yeast-displayed (designed binder)
chain: IAEPAMIAECHPIETLVDILQEYPDEIGYIFKPSCVPLMRCGGCCNNRNVQCRPTEESNITMQIMRIKPHRGQHIGEMSFLQHNKCRCETVAAGSTSGSGKSSEGKGEVVKFMDVYQRSYCKTRTEVFEISRRLIDRTNANFLVWPPCVEVQRCSGCCNHEGLECVPTQVQLRPVQVRKIEFVRKKPIFKKATVTLEDHLACECRPKKD
notes: Combines K87R and I182F with F20L, E28G, Q71R and D160H
[1]
  Kd: 0.39 nM
[2]
  Kd: 1.1 nM
[3]
  EC50 (read off the curve): ~0.3 nM
[4]
  EC50 (read off the curve): ~0.4 nM
[5]
  EC50 (read off the curve): ~0.2 nM
[6]
  Kd: 2.1 nM
[7]
  Kd: 0.39 nM
[8]
  Kd: 1.1 nM
[9]
  EC50 (read off the curve): ~1 nM
[10]
  fold improvement compared to PV6: 1100 fold
[11]
  fold improvement compared to PV6: 200 fold
[12]
  Kd: 0.21 nM
